# From the DeepSol protein solubility set
# Assay: soluble on expression in E. coli; label from the status in PepcDB or PDB records
row,Sequence,soluble on expression in E. coli
1,MHQVISATTNPAKIQAILQAFEEIFGEGSCHITPVAVESGVPEQPFGSEETRAGARNRVDNARRLHPQADFWVAIEAGIDDDATFSWVVIDNGVQRGEARSATLPLPAVILDRVRQGEALGPVMSQYTGIDEIGRKEGAIGVFTAGKLTRSSVYYQAVILALSPFHNAVYR,soluble
2,MGSDKIHHHHHHMTLADYVEIETTKDELIRACKQAADLIRTRVDYKYILVLLFLKKLSDEWKREYREALKTLMEKGVDEEEAKILAKDRSFHKFDYPEKYTWEELRKNVNELPVRLSEALKLLAEKNPELQGVVDRLDFLEFTRARDNFDILVQLFELFSGLNLGRASDSILGDAYEWLIGYFAPQKAKEGEVFTPSEVVELIVRIVDPKPMDSVYDPAAGYARMLIRAYDYVKEKYGEEEVRKLFLYGQEVNPTTYAIAKMNAIVHGIKDINLVVGDTLKNPRFKEGETFRKFDIVIANPPWNQDGYGEEELKKAEFYDERFRYGFTPKQSADWAWIQHMLASAKKKVGVVIDNGCLFRGGKEGAIRKAVVEDDLIECVILLPEKLFYNTGAPGAIIIFNKQKPESRKGKILFINASNEYEKHPEVRKLNRLGEKHIEKIVSAYREFKDGDGFCRVVDVEEVRKNDYNLNVTLYVFPQEEVEEIDVAKEWEELRGIEREIDEVERRIEEYLAELGFGRG,not soluble
3,MAFISFRDFMEKAVKDYYSSQRALKDFFTAPELDRAFGEALAEFFSQHLSEFERPALVELGAGRGLLAYDILNYYRANYPDLFNRLKYYIYEFSPYLISKQREVLKNFKNVEWVEELPKVEGIVFSNEFFDALPVHIVKGGKELYVDEKGSEVWLSLENEKVKEFLRRMNYENLNQIVEVCLDCIDMLKKISESLVEGYHFVIDYGYTSEEITKYPEGTVVAYKEHKVVKDFLKEAGNADITAHVNFSALMEYGRDFGLETILFQSQRDFLMHIPTFLNELEKLSWEESAESVERLSRLKTMLISMGDRFKVLLQRKLSQLEHHHHHH,not soluble
4,MTGTLLYTKNSALDRSEESGDLSPAKEFSIGPGFLKYVLRVRNEIAAAEYDMSVPTGFEADANCDYCFEQDTCMVVSGRLDQESKAGQLGEPLPEPERAYFERLYRAIEEERREVHAEYRKLWEQSAAERADDDRALVDLDPLGREPLDGGRWALSARRTSDAVSKIREGDRVLASDGHPTQGTAELATVRHLDDEIVVVADEPFELRRIDVYPSELGVDRQLTALHDAVLRGDPDRKDVLFGRREPSFVGDHRPIIDNNESQNEAVNRALAAEDFALIHGPPGTGKTYTLAQTVQALVARGDRVLLSAFTNRAVDNAIEALEAQGFTDVLRWGSESGVRDDMQSYRFDRTGDPRERAAALRDAQVVAATTAACGSRALKQQQFDVAVIDEAGQLTEPGTFLATNRADRFVLVGDHEQLPPVVRAENDLQTSLFEQLIDDYPDAAVMLDRQYRMSQRIQYFASREFYDGQLRPANAEVASQRLADLDGVDVSTLPSALRDAVSFVDPGGSADGNTNPTEADRVADIVSAYLDAGVDPDDIGVIAPFRAQVAELSRRIDEVTVDTVDRFQGSSKEVIIVSFVATGELSSPIFEDYRRVNVALTRAKKALVLVGDATALRSVPFYERMLEWAGLEHHHHHH,not soluble
5,MGSDKIHHHHHHMSGKPAARVTDPTTCPVPGHGSNPIVQGSPDVVFDGLPAARQGDASACGSPMISAVSSTVLINGLPAVTLGSIGAHGNVVIGGSGTVLIGDVFTPAPRAPALPLNRNSVPCSGRFQLIDHETGKPVAGRRVRVWSSGGWNAFDTTDADGMTSWIERPTAEILYIDLVQRCDA,not soluble
6,MSSFTHFNEQGRAKMVDITHKEDTVRVAVAQTSVTVSREIYEKMTSNAIEKGDVLAVAQVAGVMAAKKTADLIPMCHPLMLKGVDIAFAWENDGEAHKLVITATVKTKGSTGVEMEALTAASVCALTVYDMCKALDKGMVIGPTYLVEKTGGKSGHYRRKTD,soluble
7,MAHHHHHHMRISCSCLNKSLVSTAIPSDIIERAGTNLPGIPHKYRVCRAYRQWLKLAVLCPHSLLCELNEHAQMNERFVIIVRQKFREGEELRDPEEIAVAVQSCERSLAMFRFLAADGARRRFPEAKPRLNLHKMGFMEMAKINYTQMAKEYWNTYIMRRW,not soluble
8,PEDPSDLLQHVKFQSSNFENILTWDSGPEGTPDTVYSIEYKTYGERDWVAKKGCQRITRKSCNLTVETGNLTELYYARVTAVSAGGRSATKMTDRFSSLQHTTLKPPDVTCISKVRSIQMIVHPTPTPIRAGDGHRLTLEDIFHDLFYHLELQVNRTYQMHLGGKQREYEFFGLTPDTEFLGTIMILVPTWAKESAPYMCRVKTLPDRTWT,soluble
9,MSRISSMAYKWKQPPPPINDDSRHRSQSNSRLFDRIYGQMHRGNKAFEHTTSYDESISGFMRRRFAGNGERALPLRYGTNPHQKDDAELYIVEDEMPIKVLNGSPGYINILDGLNGWQLVKELSDATKMPAAASFKHVSPAGAAVGLPLNETEAACCMVSDLPIDTKKPSLAAAYARARGADRMSSFGDFIALSEKCDELTAKIINREVSDGVVAPDFDPAALSLLAKKKNGNYCVLKINPNYLPSETEERTVFGLRLRQKRNNAVINAETFNNVVGSANELNKQAIDDLIVATIALKYAQSNSVCFAHRGQVIGMGAGQQSRIHCTRLAGDKAMNWWLRQHPTVLSLPWKNAIKRSEKSNAIDVLCSGVLGSEVCNFKFNRPLSYFSLVTNL,not soluble
10,MDPRGILKAFPKRQKIHADASSKVLAKIPRREEGEEAEEWLSSLRAHVVRTGIGRARAELFEKQIVQHGGQLCPAQGPGVTHIVVDEGMDYERALRLLRLPQLPPGAQLVKSAWLSLCLQERRLVDVAGFSIFIPSRYLDHPQPSKAEQDASIPPGTHEALLQTALSPPPPPTRPVSPPQKAKEAPNTQAQPISDDEASDGEETQVSAADLEALISGHYPTSLEGDCEPSPAPAVLDKWVCAQPSSQKATNHNLHITEKLEVLAKAYSVQGDKWRALGYAKAINALKSFHKPVTSYQEACSIPGIGKRMAEKIIEILESGHLRKLDHISESVPVLELFSNIWGAGTKTAQMWYQQGFRSLEDIRSQASLTTQQAIGLKHYSDFLERMPREEATEIEQTVQKAAQAFNSGLLCVACGSYRRGKATCGDVDVLITHPDGRSHRGIFSRLLDSLRQEGFLTDDLVSQEENGQQQKYLGVCRLPGPGRRHRRLDIIVVPYSEFACALLYFTGSAHFNRSMRALAKTKGMSLSEHALSTAVVRNTHGCKVGPGRVLPTPTEKDVFRLLGLPYREPAERDW,soluble
11,MVVVMNPEQIYGVSNIKSHIPVMLDIEESNYDAWRELFLTHCLSFDVMGHIDGTLLPTNANDVNWQKRDGIVKLSLYGTLTPKQFQGSFVTSSTSRDIWLRIKNQFRNNKDARALRLDSELRTKDIGDMRVADYYRKMKKLADSLRNVDVPVTDRNLVMYVLNGLNPKFDNIINVIKHRQPFPSFDDAATMLQEEEDRLKRAIKPNPTHVDHSSSSTVLACSEAPPVTNFQRSGGNQMGYRGRGRGNNIFRGRGGRFSYYNMPTFNSWNRPPFYQNSYQMWNHPWGYPPYVNTNGGNGLGLLGPRPAY,soluble
12,MSLNYSDPVTFEILGVVANYGQEGCFMLAQLPPALQSLHLPLRLKLWDGNHFDLGPSPQVTILVKEPQLISQLTHPSMDQLGTAFVEGKLELEGDIGEAIRVCDELSEALLADEDETPPPRVSHDKTTDAKAISYHYDVSNAFYQLWLDQDMAYSCAYFREPDNTLDQAQQDKFDHLCRKLRLDAGDYLLDVGCGWGGLARFAAREYGAKVFGITLSKEQLKLGRKRVQAEGLADKVDLQILDYRDLPQDGRFDKVVSVGMFEHVGHANLALYCQKLFGAVREGGLVMNHGITAKHVDGRPVGRGAGEFIDRYVFPHGELPHLSMISASICEAGLEVVDVESLRLHYAKTLHHWSENLENQLHKAAALVPEKTLRIWRLYLAGCAYAFQKGWINLHQILAVKPYADGHHDLPWTREDLYREGHHHHHH,soluble
13,GSMDQNTTEPVAATETLAEVPEHVLRGLPEEVRLFPSAVDKTRIGVWATKPILKGKKFGPFVGDKKKRSQVKNNVYMWEVYYPNLGWMCIDATDPEKGNWLRYVNWACSGEEQNLFPLEINRAIYYKTLKPIAPGEELLVWYDGEDNPEIAAAIEEERASARS,soluble
14,MGHHHHHHSHMFGGDTLYELRCSLQLAETEREGGFSPHISPFTAVNDLGHLLGRAGFNTLTVDTDEIQVNYPGMFELMEDLQGMGESNCAWNRKALLHRDTMLAAAAVYREMYRNEDGSVPATYQIYYMIGWKYHESQARPAERGSATVSFGELGKINNLMPPGKKSQ,not soluble
